From article PMC9945441
Several values for one entry are separate records, joined by “and”; a condition that tells them apart may be missing. Identical values can stand only once.

Key:
[1] = target: Thermodesulfatator indicus HARP, recombinant (Thermodesulfatator indicus); assay: SEC
[2] = target: Thermodesulfatator indicus HARP, recombinant (Thermodesulfatator indicus); assay: mass photometry

In the case of “Thermodesulfatator indicus HARP, recombinant (enzyme)”, the stoichiometry N [1] is reported as under 12 and the stoichiometry N [2] is reported as 2 and 4.
